These results are taken from patent US20040072319A1, “Molecules that modulate ubiquintin-dependent proteolysis and methods for identifying same” (priority 2003, published 2004).

B1: SicpT45 peptide VPVpTPSTTK (peptide)
peptide: VPV[pT]PSTTK
notes: also called Sic1 pT45 phosphopeptide; Sic1 15-pT45 peptide

Values joined by “and” are separate entries in the source; they are usually repeats but may differ in a detail not shown here. Equal values may be shown once. Square brackets hold non-standard residues; d marks the D form. Ends that are not written are not given here. Peptide text beside a SMILES is read from it. pY = N[C@@H](Cc1ccc(OP(=O)(O)O)cc1)C(=O)O; pT = C[C@@H](OP(=O)(O)O)[C@H](N)C(=O)O; pS = N[C@@H](COP(=O)(O)O)C(=O)O

The target of the first assay is T1, Skp1-Cdc4 complex (yeast, UniProt P07834 1-779; P52286 1-194, limits assumed).
T1 construct: Purified complex (Gst removed by TEV, size exclusion) for fluorescence polarization and SPOTS arrays; also called Cdc4/Skp1; cdc4/skp1 complex
T1 sequence (P07834 whole entry, chain 1 of 2): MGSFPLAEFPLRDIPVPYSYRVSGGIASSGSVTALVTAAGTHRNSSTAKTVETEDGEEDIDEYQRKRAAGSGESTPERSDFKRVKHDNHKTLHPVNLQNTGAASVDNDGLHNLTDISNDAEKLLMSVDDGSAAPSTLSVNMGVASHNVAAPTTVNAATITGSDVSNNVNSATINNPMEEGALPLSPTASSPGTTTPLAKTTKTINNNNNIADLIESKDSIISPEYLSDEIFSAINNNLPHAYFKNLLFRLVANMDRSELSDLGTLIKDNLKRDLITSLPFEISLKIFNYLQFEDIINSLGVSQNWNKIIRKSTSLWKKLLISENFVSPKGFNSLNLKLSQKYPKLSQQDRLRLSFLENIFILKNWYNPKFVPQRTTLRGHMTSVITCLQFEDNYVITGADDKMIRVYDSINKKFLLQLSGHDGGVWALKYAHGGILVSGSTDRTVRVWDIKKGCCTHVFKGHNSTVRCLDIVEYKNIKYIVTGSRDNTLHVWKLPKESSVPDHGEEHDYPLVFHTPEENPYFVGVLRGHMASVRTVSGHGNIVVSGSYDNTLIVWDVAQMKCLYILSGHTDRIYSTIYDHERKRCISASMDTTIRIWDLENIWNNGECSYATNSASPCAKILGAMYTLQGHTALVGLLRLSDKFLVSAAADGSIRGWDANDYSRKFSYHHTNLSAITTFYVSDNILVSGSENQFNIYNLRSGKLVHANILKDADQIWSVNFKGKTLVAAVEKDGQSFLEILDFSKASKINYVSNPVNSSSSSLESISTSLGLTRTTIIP
T1 sequence (P52286 whole entry, chain 2 of 2): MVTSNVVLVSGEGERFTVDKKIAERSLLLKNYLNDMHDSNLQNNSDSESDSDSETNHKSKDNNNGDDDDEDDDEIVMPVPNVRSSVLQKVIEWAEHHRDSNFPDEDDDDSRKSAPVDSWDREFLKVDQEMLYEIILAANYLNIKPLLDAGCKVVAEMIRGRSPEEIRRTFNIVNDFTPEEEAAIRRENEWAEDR
Kind of assay: fluorescence polarization, 5 nM fluorescein-labeled peptide, Cdc4/Skp1 titrated.
Settings: not given
For the molecule CycEK4-9mer GLLpTPPQKG (peptide), the Kd – broadly, the concentration at which binding is half-saturated – worked out at 4.3 µM.
On the same count and under the same terms, in the case of CycEK-1-9mer GLKpTPPQSG (peptide) it was 6 µM; in that of CycEK2-9mer GLLpTPKQSG (peptide), 6.3 µM; in that of CycE-5mer LLpTPP (peptide), 0.85 µM.
Still for that read-out and setting: the figure for CycEK5-9mer GLLpTPPQSK (peptide) is 2.4 µM; for CycEK-2-9mer GKLpTPPQSG (peptide) it is 12 µM.
Still for that read-out and setting: the figure for CycEK3-9mer GLLpTPPKSG (peptide) is 5.1 µM.

The target in another assay is T2, Cdc4-Skp1 complexes (Saccharomyces cerevisiae, UniProt P07834).
T2 construct: made in house; host or cells: insect cells (baculovirus)
T2 sequence (P07834 whole entry): as the sequence (P07834 whole entry, chain 1 of 2) above
T2 sequence (P52286 whole entry partner): as the sequence (P52286 whole entry, chain 2 of 2) above
Kind of assay: Peptide out-competition of phosphorylated substrates binding to Cdc4-Skp1. Also on record: species or system yeast. The following applies: peptide 3, 17, 68 μM in FIG. 6f. An excerpt:
SCF complexes were purified from SF9 cells infected with recombinant baculoviruses and used in binding assays and ubiquitination reactions essentially as described (7). Gst-Skp1 expressed in BL21 codon plus cells (Stratagene) then purified on glutathione resin was used to capture full Cdc4 from insect cell lysates. Truncated forms of Cdc4 were enriched prior to Gst-Skp1 capture by affinity purification of hexahistidine fusion proteins on a metal chelate column. The Skp1-Cdc4 complexes were released from the Gst moiety by cleavage with TEV protease and further purified by size exclusion chromatography on a Superdex S75 or S200 column. Biotin labeled […]p[…] (SEQ ID NO. 1), […] (SEQ ID NO. 12), and APPLSQEpTFSDLWK (SEQ ID NO. 13) were synthesized by addition of d-biotin (Sigma) with an Fmoc-e-aminocaproic acid (Bachem) spacer to carboxy-terminal peptides. […] Streptavidin-agarose beads (Sigma) were incubated in the presence of biotinylated peptide for 90 min. at 4° C. Beads were washed 3 times and then incubated with lysates from Cdc4 expressing baculovirus infected Sf9 cells. Beads were washed 4 times, after which SDS-PAGE gel loading buffer was added and the beads were boiled for 5 min. Proteins were separated by SDS-PAGE and visualized by silver stain. Peptide out-competition of phosphorylated substrates was carried out with immunopurified Skp1^FLAG-Cdc4 from insect cells, which were incubated with phosphopeptides prior to addition of phospho-Sic1 or phospho-Cyclin E-Cdk2. For kinase inhibition assays, purified recombinant Clb5-Cdc28 complex (30 ng) was incubated with mutant forms of Sic1 (40 ng) and histone H1 (HH1, 2 μg) for 1 h on ice prior to addition of [^32P]-γ-ATP and incubation at 25° C. for 30 min. Samples were separated by SDS-PAGE and visualized by autoradiography.
Take VPVpTPSTTK (VPV[pT]PSTTK) [SicpT45]: the “competition with substrates (Sic1, cyclin E1, Far1) for binding to Cdc4” value is “nor block the interaction”.
Same read-out and setting: in the case of “PKPLNLSKPIpSPPPSLKKTA (PKPLNLSKPI[pS]PPPSLKKTA) [Far 1 pS87]” it was “nor block the interaction”; in that of “Sic1 15-pT45: Sic1 phosphopeptide centered on pT45; possibly the SicpT45 peptide of Table 1”, “does not measurably bind Cdc4 or compete with substrates”.

The target of the next assay is T1, Skp1-Cdc4 complex. Kind of assay: fluorescence polarization.
Settings: not given
Consider NVQ[pT]PTLMA (also called Pcl2) [Pc12 peptide NVQpTPTLMA], for which the binding result is “no binding (tested: up to [Cdc4/Skp1] of 10 µM)”.
The same measure, in the same setting: in the case of VEQ[pT]PKKPG [p27pT187 peptide VEQpTPKKPG] it was “no binding (tested: up to [Cdc4/Skp1] of 10 µM)”; in that of PKPLNLSKPI[pS]PPPSLKKTA [Far 1 pS87 peptide PKPLNLSKPIpSPPPSLKKTA], “no binding (tested: up to [Cdc4/Skp1] of 10 µM)”.
As to B1, the binding result is “no binding (tested: up to [Cdc4/Skp1] of 10 µM)”.
On the same count and under the same terms, in the case of GLL[pT]APQSG [CycEA1-9mer GLLpTAPQSG] it was “no binding (tested: up to [Cdc4/Skp1] of 10 µM)”; in that of GLL[pY]PPQSG (also called CycE19-pY380) [CycEpY-9mer GLLpYPPQSG], “no binding (tested: up to [Cdc4/Skp1] of 10 µM)”.

The next assay deals with Cdc4 (Saccharomyces cerevisiae, UniProt P07834). Kind of assay: Fluorescence polarization equilibrium binding of peptides to Cdc4. Set-up: made in house; host or cells: Cdc4: baculovirus-infected insect (Sf9) cells; Gst-Skp1: E. coli BL21 codon plus; species or system yeast.
Settings: not given
How it is done: Equilibrium binding constant determination was carried out using fluorescence polarization on a Beacon 2000 Fluorescence Polarization System (Pan Vera, Wis.) equipped with a 100 μL sample chamber. Fluorescein-labeled probes were prepared through the reaction of carboxyterminal-peptides with 5-(and-6)-carboxyfluorescein succinimidyl ester (Molecular Probes), purified by reverse-phase HPLC, and confirmed by mass spectrometry. Binding studies were conducted with 5 nM fluorescein-labeled probe dissolved in PBS containing 100 μg/ml BSA and 1 mM dithiothreitol. Reaction mixtures were allowed to equilibrate for 10 minutes at room temperature prior to each measurement. All fluorescence polarization measurements were conducted at 22° C.
In general terms: Polarisation of emitted light reports the rotation of a fluorescent probe.
In the case of GLLpYPPQSG (GLL[pY]PPQSG) [CycEpY-9mer], the “binding to Cdc4 (in words)” value is listed as “failed to bind”.
Take VPVpTPSTTK (VPV[pT]PSTTK) [SicpT45]: the “binding to Cdc4 (in words)” value is listed as “could neither bind stably to Cdc4”.
As to “PKPLNLSKPIpSPPPSLKKTA (PKPLNLSKPI[pS]PPPSLKKTA) [Far 1 pS87]”, the “binding to Cdc4 (in words)” value is reported as “could neither bind stably to Cdc4”.
For “Sic1 15-pT45: Sic1 phosphopeptide centered on pT45; possibly the SicpT45 peptide of Table 1”, the “binding to Cdc4 (in words)” value was “does not measurably bind Cdc4”.

Staying with this assay, now noted: K, (μM), Table 1; average of at least 3 sets of readings, ± SEM; ND = no binding detected up to [Cdc4/Skp1] of 10 μM; ˜ = saturation binding not achieved.
With `CC(=O)NCCCC[C@H](NC(=O)[C@@H]1CCCN1C(=O)[C@@H]1CCCN1C(=O)[C@@H](NC(=O)[C@H](CC(C)C)NC(=O)[C@H](CC(C)C)NC(=O)CNC(=O)c1ccc2c(c1)C(=O)OC21c2ccc(O)cc2Oc2cc(O)ccc21)[C@@H](C)OP(=O)(O)O)C(=O)N[C@@H](CO)C(=O)NCC(=O)O` [CycEK3Ac-9mer, GLLpTPPK(Ac)SG] (HELM PEPTIDE1{[O=C1OC2(c3ccc(O)cc3Oc3cc(O)ccc32)c2ccc(C(=O)[*:2])cc21].G.L.L.[C[C@@H](OP(=O)(O)O)[C@H](N[*:1])C(=O)[*:2]].P.P.K.S.G}|PEPTIDE2{[ac]}$PEPTIDE1,PEPTIDE2,8:R3-1:R2$$$V2.0), the Kd amounted to 1 ± 0.1 µM.
For `CC[C@H](C)[C@H](NC(=O)[C@@H]1CCCN1C(=O)[C@@H](NC(=O)[C@H](CC(C)C)NC(=O)[C@H](CC(C)C)NC(=O)[C@H](CCC(=O)O)NC(=O)c1ccc2c(c1)C(=O)OC21c2ccc(O)cc2Oc2cc(O)ccc21)[C@@H](C)OP(=O)(O)O)C(=O)N[C@@H](CC(C)C)C(=O)N[C@@H](C)C(=O)N[C@@H](Cc1ccccc1)C(=O)O` [Pc17, ELLpTPILAF] (HELM PEPTIDE1{[O=C1OC2(c3ccc(O)cc3Oc3cc(O)ccc32)c2ccc(C(=O)[*:2])cc21].E.L.L.[C[C@@H](OP(=O)(O)O)[C@H](N[*:1])C(=O)[*:2]].P.I.L.A.F}$$$$V2.0), the dissociation constant (Kd) was approximately 40 µM.
Same read-out and setting: in the case of `CC(C)C[C@H](NC(=O)CNC(=O)c1ccc2c(c1)C(=O)OC21c2ccc(O)cc2Oc2cc(O)ccc21)C(=O)N[C@@H](CC(C)C)C(=O)N[C@H](C(=O)N1CCC[C@H]1C(=O)N1CCC[C@H]1C(=O)N[C@@H](CCC(N)=O)C(=O)N[C@@H](CO)C(=O)NCC(=O)O)[C@@H](C)OP(=O)(O)O` [CycE-9mer, GLLpTPPQSG] (HELM PEPTIDE1{[O=C1OC2(c3ccc(O)cc3Oc3cc(O)ccc32)c2ccc(C(=O)[*:2])cc21].G.L.L.[C[C@@H](OP(=O)(O)O)[C@H](N[*:1])C(=O)[*:2]].P.P.Q.S.G}$$$$V2.0) it was 1 ± 0.05 µM; in that of `CSCC[C@H](NC(=O)[C@@H]1CCCN1C(=O)[C@@H]1CCCN1C(=O)[C@@H](NC(=O)[C@@H](NC(=O)[C@@H]1CCCN1C(=O)[C@@H]1CCCN1C(=O)c1ccc2c(c1)C(=O)OC21c2ccc(O)cc2Oc2cc(O)ccc21)C(C)C)[C@@H](C)OP(=O)(O)O)C(=O)N[C@@H](CO)C(=O)N1CCC[C@H]1C(=O)O` [Ash 1 pT290, PPVpTPPMSP] (HELM PEPTIDE1{[O=C1OC2(c3ccc(O)cc3Oc3cc(O)ccc32)c2ccc(C(=O)[*:2])cc21].P.P.V.[C[C@@H](OP(=O)(O)O)[C@H](N[*:1])C(=O)[*:2]].P.P.M.S.P}$$$$V2.0), approximately 25 µM.
Still for that read-out and setting: the figure for `CC[C@H](C)[C@H](NC(=O)[C@H](CC(C)C)NC(=O)[C@H](CCC(N)=O)NC(=O)[C@H](CCC(=O)O)NC(=O)[C@H](CCC(N)=O)NC(=O)[C@@H]1CCCN1C(=O)[C@@H](NC(=O)[C@H](Cc1ccccc1)NC(=O)[C@H](CCC(N)=O)NC(=O)[C@@H]1CCCN1C(=O)[C@H](Cc1ccccc1)NC(=O)[C@H](CCC(=O)O)NC(=O)CNC(=O)[C@@H](NC(=O)c1ccc2c(c1)C(=O)OC21c2ccc(O)cc2Oc2cc(O)ccc21)[C@@H](C)O)[C@@H](C)OP(=O)(O)O)C(=O)O` [FarpT306, TGEFPQFpTPQEQLI] (HELM PEPTIDE1{[O=C1OC2(c3ccc(O)cc3Oc3cc(O)ccc32)c2ccc(C(=O)[*:2])cc21].T.G.E.F.P.Q.F.[C[C@@H](OP(=O)(O)O)[C@H](N[*:1])C(=O)[*:2]].P.Q.E.Q.L.I}$$$$V2.0) is approximately 25 µM.

Still in this assay, the particulars now being: dissociation constant Kd for Cdc4.
On to `CC(C)C[C@H](NC(=O)[C@@H](NC(=O)[C@@H]1CCCN1C(=O)[C@@H](NC(=O)[C@@H]1CCCN1C(=O)[C@H](CC(C)C)NC(=O)[C@H](Cc1ccccc1)NC(=O)c1ccc2c(c1)C(=O)OC21c2ccc(O)cc2Oc2cc(O)ccc21)[C@@H](C)OP(=O)(O)O)C(C)C)C(=O)N[C@@H](CCC(=O)O)C(=O)N[C@@H](CC(=O)O)C(=O)O` [Gcn4-9mer, FLPpTPVLED] (HELM PEPTIDE1{[O=C1OC2(c3ccc(O)cc3Oc3cc(O)ccc32)c2ccc(C(=O)[*:2])cc21].F.L.P.[C[C@@H](OP(=O)(O)O)[C@H](N[*:1])C(=O)[*:2]].P.V.L.E.D}$$$$V2.0), for which the Kd was 0.675 µM and 0.88 µM.
On the same count and under the same terms, the figure for `CC(C)C[C@H](NC(=O)CNC(=O)c1ccc2c(c1)C(=O)OC21c2ccc(O)cc2Oc2cc(O)ccc21)C(=O)N[C@@H](CC(C)C)C(=O)N[C@@H](COP(=O)(O)O)C(=O)N1CCC[C@H]1C(=O)N1CCC[C@H]1C(=O)N[C@@H](CCC(N)=O)C(=O)N[C@@H](CO)C(=O)NCC(=O)O` [CycEpS-9mer, GLLpSPPQSG] (HELM PEPTIDE1{[O=C1OC2(c3ccc(O)cc3Oc3cc(O)ccc32)c2ccc(C(=O)[*:2])cc21].G.L.L.[O=C([C@H](COP(=O)(O)O)N[*:1])[*:2]].P.P.Q.S.G}$$$$V2.0) is 6 µM.
